Molecular target: BoNT/A receptor on mouse brain synaptosomes (mouse)

Substance: active BoNT/A toxin (Metabiologics, Inc.), unlabeled (from UniProt P0DPI1 2-1296)
- percent inhibition at 2.0 µg: 78%
